Assay results published in the supplement of paper PMC10567573.
± gives the standard deviation.

Assay: protein stability index of a GFP-peptide fusion (GPS, HEK-293T) (PSI 1-6); higher = more stable
[1] = treatment: DMSO, c terminus: a fixed tail appended
[2] = treatment: MLN4924 1 uM, 8 h, c terminus: a fixed tail appended
[3] = treatment: DMSO, c terminus: native
[4] = treatment: MLN4924 1 uM, 8 h, c terminus: native
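Note: 24-mer peptide tiles fused after GFP, lentivirally expressed, FACS-sorted into six equal bins by GFP/DsRed ratio, decoded by Illumina sequencing, PSI is the read-weighted mean bin number.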

| Sequence | protein stability index [1] | protein stability index [2] | protein stability index [3] | protein stability index [4] |
| --- | --- | --- | --- | --- |
| SIVIFCLETLPEFRDEKDYPASTS [KCNA3] | 2.4 ± 0.54 | 2.19 ± 0.45 |  |  |
| SIYLVGGYSWSMGAYKSSTICYCP [KLHL14] | 2.87 ± 0.46 | 2.53 ± 0.87 |  |  |
| SKVVVPPLPGKAFLRQLPFRGDDG [SNX3] | 3.45 ± 0.17 | 3.56 ± 0.21 |  |  |
| SLPETFGDFWRMIWEQRSATVVMM [PTPRD] | 2.69 ± 0.7 | 2.43 ± 0.83 |  |  |
| SLQESVEDSLATVKVVLIPVGQEI [IQUB] | 2.49 ± 0.53 | 2.24 ± 0.46 |  |  |
| SLYENDCIFDKFECVWNGSDSVIM [PPP2R2B] | 2.06 ± 0.71 | 2.07 ± 0.37 |  |  |
| SMISMGLFSIAPLIYGSMEMFPAA [JAGN1] | 3.08 ± 0.29 | 3.23 ± 0.32 |  |  |
| SMQYNGSYFDRGAKGGSRLCTPEG [DFFB] | 2.98 ± 0.14 | 3.35 ± 0.35 |  |  |
| SMRLLESKKGLSFFAFEHSEEYQQ [TCF25] | 3.35 ± 0.12 | 3.3 ± 0.16 |  |  |
| SNLCCFIPGKVIDEIYRVLRYVNS [FBXO28] | 2 ± 0.66 | 2.38 ± 0.26 |  |  |
| SNLIRHQRIHAAERLCMGVDCTEI [ZNF263] | 3.17 ± 0.2 | 3.18 ± 0.21 |  |  |
| SPTSGKFRRGSGSACSLLCCCGRD [MCOLN1] | 3.27 ± 0.15 | 3.56 ± 0.41 |  |  |
| SQWKDPALSQLICFCRESRYMDQW [GADD45A] | 2.19 ± 0.19 | 2.31 ± 0.23 |  |  |
| SRALALFDIQKIMQEKNPVHVIGV [ZNF8] | 2.52 ± 0.27 | 1.89 ± 0.39 |  |  |
| SRFRKAYKPEQPLVRLRGGAYIGE [LOXL2] | 3.16 ± 0.26 | 2.98 ± 0.39 |  |  |
| SRGELIPISPSTEVGGSGIGTPPS [MYBL2] | 4.74 ± 0.28 | 4.8 ± 0.15 |  |  |
| SRGSPVRVKREFEPASAREAPASV [USP39] | 4.47 ± 0.32 | 4.49 ± 0.35 |  |  |
| SRNRDPGRLILSTIRLRPRQVLCE [PWWP2B] | 2.68 ± 0.18 | 3.04 ± 0.25 |  |  |
| SRPSAPFTEASMMMSLTKLADKEL [ESR2] | 3.97 ± 0.4 | 3.97 ± 0.068 |  |  |
| SRSVEDDKEGHLVCRIGDWLQERY [CLK3] | 3.41 ± 0.23 | 3.45 ± 0.2 |  |  |
| SSARIPKCPWMEGGEMSPQVETSI [INTS4] | 3.9 ± 0.14 | 4.12 ± 0.1 |  |  |
| SSDRSRDSSHERTESQLTPCIRNV [BTBD10] | 5.06 ± 0.065 | 5 ± 0.2 |  |  |
| SSEHFEKLHEIFRGLHEDLQGVPE [VTI1B] | 4.11 ± 0.32 | 3.97 ± 0.12 |  |  |

| Sequence | protein stability index [1] | protein stability index [2] | protein stability index [3] | protein stability index [4] |
| --- | --- | --- | --- | --- |
| SSGEPVDYNVDIGIPLDGETEEL [MYOZ1] |  |  | 5.5 ± 0.21 | 5.23 ± 0.17 |
| SSQLAQMQCLISNVEAQLSEIRCD [KRT36] | 3 ± 0.075 | 3.1 ± 0.31 |  |  |
| SSRPENIPPKEFHFRHPKRSVSLS [BNIP3L] | 4.29 ± 0.35 | 4.24 ± 0.051 |  |  |
| SSSYSVSSPRSVDSYSSTQHVPEE [ATF6] | 5.16 ± 0.14 | 4.99 ± 0.15 |  |  |
| SSVCVQGRCIHAGCDRIIGSKKKF [ADAMTS4] | 3.57 ± 0.26 | 3.22 ± 0.38 |  |  |
| SSVSDVKFSHSGRYMLTRDYLTVK [PPP2R2C] | 2.88 ± 0.24 | 2.87 ± 0.39 |  |  |
| STDTAVTNEWEKRLSTSPVRLAAR [EPB41L3] | 4.3 ± 0.26 | 4.44 ± 0.18 |  |  |
| STFSTNYRSLGSVQAPSYGARPVS [KRT18] | 3.53 ± 0.16 | 3.61 ± 0.2 |  |  |
| STLLGEMDLLTQSLGVDTLPPPDP [APBB1IP] | 3.79 ± 0.42 | 4.03 ± 0.41 |  |  |
| STLPRSGSSGGQQPSGMKEGVKRY [CHCHD6] | 4.49 ± 0.35 | 4.8 ± 0.29 |  |  |
| STLPSLREEEEQVRAHAPRGNAPP [KCNG1] | 4.43 ± 0.23 | 4.91 ± 0.35 |  |  |
| STPLSPAYISLVEEEDQHMKLSLG [KLHL13] | 4.27 ± 0.16 | 4.28 ± 0.19 |  |  |
| STPRPSITPTKKIELDRTIMPDGT [C2CD2L] | 4.76 ± 0.24 | 4.87 ± 0.17 |  |  |
| STVKDCATIFALSTMTSSVQIYNL [ATL3] | 3.08 ± 0.68 | 3.25 ± 0.59 |  |  |
| SVHVPGPHAMTIQELVDYVNARQK [PTPN9] | 3.49 ± 0.34 | 3.47 ± 0.28 |  |  |
| SVIVLDINDNAPTFQSSVLRVGIP [PCDHGC5] | 2.18 ± 0.11 | 2.21 ± 0.081 |  |  |
| SVRRSESWARPRPDEERPLRRPRP [RASAL3] | 4.92 ± 0.096 | 4.68 ± 0.29 |  |  |
| SWACAFTNALTHTVAMSTLNFCGP [OR3A1] | 3.47 ± 0.13 | 3.15 ± 0.049 |  |  |
| SWRVGVVRVRQDSGAEGHSHSCYH [TRIM35] | 3.02 ± 0.41 | 3.2 ± 0.32 |  |  |
| SWSQYEMPEFSSDSTMRILSNLVQ [RTP4] | 2.48 ± 0.24 | 2.59 ± 0.3 |  |  |
| SWVDDTPFNKVQSARFWIPGEPNN [CD207] | 2.44 ± 0.15 | 2.51 ± 0.45 |  |  |
| SYFDMLYPEDSSWAAKAPGASSRE [SPDEF] | 3.56 ± 0.13 | 3.52 ± 0.22 |  |  |
| SYPNPNEDKCPGNYTNPLKVQTVI [TMEM192] | 3.17 ± 0.36 | 3.29 ± 0.22 |  |  |

| Sequence | protein stability index [1] | protein stability index [2] | protein stability index [3] | protein stability index [4] |
| --- | --- | --- | --- | --- |
| TAGLLREQVAQLKQKVMTHVSNGC [JUNB] | 3.25 ± 0.2 | 3.25 ± 0.32 |  |  |
| TAKDFIVGKSLTILGRTFFIYDCD [EFHC1] | 2.93 ± 0.49 | 2.28 ± 0.34 |  |  |
| TALGGQCVDRQEVAEITKQLPPVV [TCAP] | 4.07 ± 0.25 | 4.27 ± 0.13 |  |  |
| TAPLPMPEGPEPAAPGKQPGRGHT [ELOA2] | 5.53 ± 0.15 | 5.27 ± 0.2 |  |  |
| TDDSYSCHCLKGFTLNPDKKTCRR [MATN2] | 3.27 ± 0.78 | 4.03 ± 0.7 |  |  |
| TEATISIREDEVHRLGSPYGHCTA [SCNN1D] | 3.93 ± 0.29 | 3.88 ± 0.16 |  |  |
| TEKSGKREFDVRQTPQVNINPFTP [WEE1] | 4.42 ± 0.25 | 4.25 ± 0.094 |  |  |
| TESQLTPCIRNVTSPTRQHHVERE [BTBD10] | 4.99 ± 0.16 | 4.95 ± 0.17 |  |  |
| TFASLETVGIYFGLVYRIHSVLQG [TMEM40] | 3.59 ± 0.44 | 3.24 ± 0.23 |  |  |
| TFIVSCKFSPDGKYVVSGFDVDHG [WDR88] | 2.79 ± 0.39 | 2.81 ± 0.53 |  |  |
| TFQEPLYPALRLWEGAISIPRLP [TRIM14] |  |  | 2.65 ± 0.62 | 2.67 ± 0.66 |
| TFRQYCGAACTCHVRNPLSACSIM [RNF208] | 2.21 ± 0.4 | 2.2 ± 0.27 |  |  |
| TGTSNTTAIKSIEFARKGSCFLIN [RBBP5] | 2.42 ± 0.26 | 2.42 ± 0.22 |  |  |
| THLENPTRYHLQQARRQQVKQYLS [TFE3] | 3.38 ± 0.17 | 3.64 ± 0.22 |  |  |
| TIAPTLIADLFVADQRSRMLSIFY [SPNS1] | 2.87 ± 0.66 | 2.66 ± 0.6 |  |  |
| TIEELQQKILCSKSENARLVVQID [KRT33B] | 3.38 ± 0.19 | 3.28 ± 0.53 |  |  |
| TIEGTSDDLTVVDAASLRRQIIKL [MFF] | 4 ± 0.34 | 4.08 ± 0.16 |  |  |
| TITEEIRDGKVISSREHVQSRPL [KRT36] |  |  | 5.23 ± 0.29 | 5.26 ± 0.21 |
| TLASAGGPDNLVLLNPEKYKAKSR [ADD1] | 4.22 ± 0.22 | 4.31 ± 0.2 |  |  |
| TLEITLKDIVQTVRSRLEEAGIKV [TENT5C] | 2.02 ± 0.35 | 2.18 ± 0.35 |  |  |
| TLKQQHQQAVEQIAKAEETHSSLS [CCDC89] | 5.07 ± 0.21 | 5.09 ± 0.14 |  |  |
| TLRLEKLGHPALSQEEGKSALEDQ [PPFIA4] | 5.38 ± 0.19 | 5.14 ± 0.21 |  |  |
| TLVDEGDLYNWEVAIFGPPNTYYE [CDC34] | 2.33 ± 0.38 | 2.8 ± 0.26 |  |  |

| Sequence | protein stability index [1] | protein stability index [2] | protein stability index [3] | protein stability index [4] |
| --- | --- | --- | --- | --- |
| TMGLAGRARVKEKFSPEAFTEQLY [ALG2] | 2.94 ± 0.26 | 2.96 ± 0.13 |  |  |
| TMLTVIEQPVPPTPATPEDPAPLW [EMID1] | 3.76 ± 0.28 | 3.77 ± 0.23 |  |  |
| TNNKVYAAKIIPHSRVAKPHQREK [PLK2] | 3.71 ± 0.2 | 4.08 ± 0.57 |  |  |
| TPASQSPKKPPAKDPLADLNIKDF [SNAP91] | 5.06 ± 0.092 | 4.87 ± 0.25 |  |  |
| TPKCSSPRGQEGSRQDKPLSPAGS [YJU2B] | 5 ± 0.23 | 5.21 ± 0.23 |  |  |
| TPYKPPAGRAAAPELSYRVCVGSD [MYORG] | 3.94 ± 0.24 | 4.13 ± 0.27 |  |  |
| TQHHFAFQNAERAFKAAALIQRWY [PPEF2] | 3.09 ± 0.14 | 3.08 ± 0.18 |  |  |
| TQIKGLKNKPKKMGHIKPDLIDVD [PHTF1] | 4.42 ± 0.16 | 4.34 ± 0.26 |  |  |
| TQRQFTILNFNDLMSSAVPMTPED [AASDHPPT] | 3.74 ± 0.14 | 3.38 ± 0.35 |  |  |
| TQRRTSMGGTQQQFVEGVRMEEIV [CTNNB1] | 4.05 ± 0.47 | 4.26 ± 0.37 |  |  |
| TRRKKGKKDKDISKEKDTQNQNIT [KMT2E] | 4.75 ± 0.12 | 5.07 ± 0.1 |  |  |
| TSFPGRGSIPEFFHIMKRKFTNKE [AASDHPPT] | 3.179 ± 0.024 | 3.21 ± 0.72 |  |  |
| TSPLTAEKLCIYTDNSIKPQELLE [CCND2] | 4.05 ± 0.23 | 4.08 ± 0.27 |  |  |
| TSSCPNVSERSFDNVRSLKVESGA [CRYBA1] | 5 ± 0.44 | 4.63 ± 0.2 |  |  |
| TSSPAIWKFPVPVLKTSRSTPLSP [KLHL13] | 3.19 ± 0.21 | 3.32 ± 0.086 |  |  |
| TTYLKTIEVFDPDANTWRLYGGMN [KLHL20] | 2.34 ± 0.23 | 2.26 ± 0.042 |  |  |
| TWTKHAEGGIFTSPNYPSKYPPDR [NETO1] | 3.94 ± 0.19 | 3.85 ± 0.065 |  |  |
| TYKCTKQLLSERFGRGSRTVDLEL [ARFIP2] | 2.43 ± 0.32 | 2.33 ± 0.18 |  |  |
| TYMSADDLRINLWNFEITNQSFNI [PPP2R2B] | 2.43 ± 0.66 | 2.53 ± 0.3 |  |  |
| VAERGTTQGCHPAWEPRSESQASR [ZNF8] | 4.48 ± 0.22 | 4.6 ± 0.2 |  |  |
